{"source": "patent US20100254896A1"}
{"target": "αvβ3 receptors on M21 human melanoma cells (human) (UniProt P06756)", "sequence (P06756 31-1048, chain 1 of 2)": "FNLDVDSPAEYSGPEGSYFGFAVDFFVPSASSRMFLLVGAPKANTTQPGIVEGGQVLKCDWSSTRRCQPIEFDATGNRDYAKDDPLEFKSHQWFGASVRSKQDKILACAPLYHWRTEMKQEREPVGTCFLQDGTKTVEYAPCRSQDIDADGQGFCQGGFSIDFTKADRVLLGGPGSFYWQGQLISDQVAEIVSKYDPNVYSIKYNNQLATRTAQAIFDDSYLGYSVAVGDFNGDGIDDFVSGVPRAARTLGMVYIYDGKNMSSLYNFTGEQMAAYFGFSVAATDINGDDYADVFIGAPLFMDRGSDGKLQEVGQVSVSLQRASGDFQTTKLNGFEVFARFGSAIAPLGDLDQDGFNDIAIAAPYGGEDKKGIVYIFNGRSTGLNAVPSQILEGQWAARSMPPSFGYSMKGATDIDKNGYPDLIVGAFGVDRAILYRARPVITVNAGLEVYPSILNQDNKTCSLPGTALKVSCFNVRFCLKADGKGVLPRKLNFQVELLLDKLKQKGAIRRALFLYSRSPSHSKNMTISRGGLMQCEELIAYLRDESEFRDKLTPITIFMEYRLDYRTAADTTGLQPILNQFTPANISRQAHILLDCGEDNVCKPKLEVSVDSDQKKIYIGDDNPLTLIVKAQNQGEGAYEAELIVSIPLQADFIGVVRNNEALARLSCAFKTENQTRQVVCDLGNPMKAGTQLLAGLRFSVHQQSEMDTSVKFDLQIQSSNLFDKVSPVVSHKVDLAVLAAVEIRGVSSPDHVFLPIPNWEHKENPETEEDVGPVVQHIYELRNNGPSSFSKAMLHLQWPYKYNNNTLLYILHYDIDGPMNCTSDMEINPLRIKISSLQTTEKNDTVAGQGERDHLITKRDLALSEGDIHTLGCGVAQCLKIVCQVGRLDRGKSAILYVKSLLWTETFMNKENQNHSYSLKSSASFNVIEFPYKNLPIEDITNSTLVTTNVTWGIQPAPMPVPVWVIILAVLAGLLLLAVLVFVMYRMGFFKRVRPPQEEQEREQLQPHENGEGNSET", "sequence (P05106 27-788, chain 2 of 2, further chain)": "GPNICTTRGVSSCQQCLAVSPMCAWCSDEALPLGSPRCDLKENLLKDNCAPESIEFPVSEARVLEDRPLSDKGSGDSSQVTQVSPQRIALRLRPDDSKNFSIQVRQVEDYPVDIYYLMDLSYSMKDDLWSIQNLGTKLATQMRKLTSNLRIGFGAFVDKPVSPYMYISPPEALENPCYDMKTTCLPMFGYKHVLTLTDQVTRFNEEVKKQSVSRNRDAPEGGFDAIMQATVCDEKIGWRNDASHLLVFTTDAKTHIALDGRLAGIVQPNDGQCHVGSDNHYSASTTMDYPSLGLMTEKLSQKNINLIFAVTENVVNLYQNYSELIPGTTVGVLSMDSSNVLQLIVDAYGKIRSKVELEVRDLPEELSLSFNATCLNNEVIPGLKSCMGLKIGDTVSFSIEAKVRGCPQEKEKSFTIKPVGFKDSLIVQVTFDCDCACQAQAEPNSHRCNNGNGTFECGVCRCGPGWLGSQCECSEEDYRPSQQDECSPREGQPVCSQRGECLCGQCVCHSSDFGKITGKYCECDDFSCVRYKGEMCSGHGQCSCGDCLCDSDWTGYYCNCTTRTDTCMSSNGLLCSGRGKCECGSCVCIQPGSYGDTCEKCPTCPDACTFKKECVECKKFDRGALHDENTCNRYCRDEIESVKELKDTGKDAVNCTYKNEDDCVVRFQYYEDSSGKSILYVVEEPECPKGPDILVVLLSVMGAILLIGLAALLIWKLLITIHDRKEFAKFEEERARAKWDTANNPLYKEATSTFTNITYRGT", "assay": "cell-based or functional assay", "units": {"phage internalization assay, pfu/µl": "pfu/µl"}}
{"substance": "RGDTNF-α (targeted TNF-α expressing AAVP) (peptide)", "phage internalization assay, pfu/µl": 21500}
{"substance": "fdTNF-α (non-targeted TNF-α expressing AAVP)", "phage internalization assay, pfu/µl": 600}
{"substance": "RGD (targeted null AAVP, Example 2) (peptide)", "phage internalization assay, pfu/µl": 14000}
{"substance": "fd (non-targeted null AAVP)", "phage internalization assay, pfu/µl": 300}
